What was measured:
[1] = molecular target: EPYC1-GFP (Chlamydomonas reinhardtii); assay: fluorescence correlation spectroscopy (FCS); dilute phase of a phase-separated mixture, alongside condensates: EPYC1-GFP fixed at 20 nM, unlabeled EPYC1 1 to 4 μM, Rubisco 0.05 to 2 μM; laser aimed at a region away from condensates
[2] = molecular target: EPYC1-GFP (Chlamydomonas reinhardtii); assay: fluorescence correlation spectroscopy (FCS); 10 nM EPYC1-GFP with varying concentrations of unlabeled Rubisco in solution, one-phase region (no condensates); 20 mM Tris-HCl, 50 mM NaCl, pH 8.0; PEI-g-PEG coated coverslip; EPYC1-GFP diffusion coefficient against Rubisco concentration fitted with a quadratic binding equation; the authors consider the Kd an upper bound

Ribulose-1,5-bisphosphate carboxylase/oxygenase (Rubisco) holoenzyme, wildtype (from UniProt P00877 3-475; P00873 46-185) (complex)
Rubisco holoenzymes per EPYC1-Rubisco complex [1]: 1
Kd [2]: 29 nM
Rubisco holoenzymes per EPYC1-Rubisco complex [2]: 1

— publication PMC9825591
